Article PMC10140725 (Scientific Reports, 2023)

Experiments:
[1] = molecular target: hemagglutinin (HA) of H1N1 influenza A strain A/Denver/57/1957, mature HA1/HA2 (Influenza A virus H1N1, strain A/Denver/57/1957); assay: crystal structure
[2] = molecular target: hemagglutinin (HA) of H1N1 influenza A strain A/Netherlands/002P1/1951, mature HA1/HA2 trimer (Influenza A virus H1N1, strain A/Netherlands/002P1/1951); assay: crystal structure
[3] = molecular target: hemagglutinin (HA) of H1N1 influenza A strain A/Melbourne/1/1946, mature HA1/HA2 trimer (Influenza A virus H1N1, strain A/Melbourne/1/1946); assay: crystal structure
[4] = molecular target: hemagglutinin (HA) of H1N1 influenza A strain A/Fort Monmouth/1/1947, mature HA1/HA2 trimer (Influenza A virus H1N1, strain A/Fort Monmouth/1/1947); assay: crystal structure
[5] = molecular target: hemagglutinin (HA) of H1N1 influenza A strain A/Hickox/JY2/1940, mature HA1/HA2 trimer (Influenza A virus H1N1, strain A/Hickox/JY2/1940) (UniProt Q0HD60); assay: crystal structure
[6] = molecular target: hemagglutinin (HA) of H1N1 influenza A strain A/Iowa/1943 (Influenza A virus H1N1, A/Iowa/1943 …, UniProt A4GCK8, strain); assay: SEC; settings: both partners purified

## hemagglutinin (HA) of H1N1 influenza A strain A/Denver/57/1957, mature HA1/HA2 (natural protein)
[1]
  stoichiometry N: 3

## hemagglutinin (HA) of H1N1 influenza A strain A/Netherlands/002P1/1951, mature HA1/HA2 trimer (natural protein)
[2]
  stoichiometry N: 3

## hemagglutinin (HA) of H1N1 influenza A strain A/Melbourne/1/1946, mature HA1/HA2 trimer (natural protein)
[3]
  stoichiometry N: 3

## hemagglutinin (HA) of H1N1 influenza A strain A/Fort Monmouth/1/1947, mature HA1/HA2 trimer (natural protein)
[4]
  stoichiometry N: 3

## hemagglutinin (HA) of H1N1 influenza A strain A/Hickox/JY2/1940, mature HA1/HA2 trimer (from UniProt Q0HD60) (natural protein)
[5]
  stoichiometry N: 3

B1: anti-influenza head-binding antibody C05 fragment antigen binding (Fab) (Fab, V domains shown)
VH: EVQLQESGGGLVQPGESLRLSCVGSGSSFGESTLSYYAVSWVRQAPGKGLEWLSIINAGGGDIDYADSVEGRFTISRDNSKETLYLQMTNLRVEDTGVYYCAKHMSMQQVVSAGWERADLVGDAFDVWGQGTMVTVSS
VL: DIQLTQSPSSLSASVGDRVTLTCQASQDIRKFLNWYQQKPGKGPKLLIYDASNLQRGVPSRFSGGGSGTDFTLIISSLQPEDVGTYYCQQYDGLPFTFGGGTKVVIK
notes: also called C05 Fab; C05 antibody; not shown: His6, C-terminal, kept
[6]
  binding result: binds
